Data set [1] concerns the target MP-LAFG-PABC-(piperazinoBOR) LA-104 as antibody conjugate AAC-193.
Data set [2] has as its target thioFAB S4497-MC-GGAFAGGG-(pipBOR).
Data set [3] deals with thioFAB 4497 MP-LAFAA-QSY7.
Data set [4] deals with thioFAB 4497 MP-LAFGA-QSY7.

B1: staphopain A (protein)
chain: YNEQYVNKLENFKIRETQGNNGWCAGYTMSALLNATYNTNKYHAEAVMRFLHPNLQGQQFQFTGLTPREMIYFEQTQGRSPQLLNRMTTYNEVDNLTKNNKGIAILGSRVESRNGMHAGHAMAVVGNAKLNNGQEVIIIWNPWDNGFMTQDAKNNVIPVSNGDHYQWYSSIYGY
Turning to B1, in data set [1], the Percent cleavage pH 5 is 100%; the Percent cleavage pH 7.2 was determined as 46%; the “percent cleavage at pH 7.2” value is “Staphopain A showed 100% cleavage at pH5 and 64% cleavage at pH 7.2”.

B2: staphopain B (protein)
chain: DQVQYENTLKNFKIREQQFDNSWCAGFSMAALLNATKNTDTYNAHDIMRTLYPEVSEQDLPNCATFPNQMIEYGKSQGRDIHYQEGVPSYNQVDQLTKDNVGIMILAQSVSQNPNDPHLGHALAVVGNAKINDQEKLIYWNPWDTELSIQDADSSLLHLSFNRDYNWYGSMIGY
As for B2, the “cleavage of the linker (LC-MS)” value in data set [2] is given as “Staphopain B was found to cleave the linker at the same site as the active protease purified from Wood46 supernatant”. Besides, the Percent cleavage pH 7.2 in data set [3], in data set [1] and in data set [4] was 100% each time. The Percent cleavage pH 5 in data set [1] stood at 100%.
